Assay results taken from US20040248211A1, “ICAM-related protein” (priority 1992, published 2004).

How the values were obtained:
[1] = target: T1, αd/CD18 transfected CHO cells (Homo sapiens, UniProt P05107+Q13349); assay: Binding of transfected CHO cells to immobilized chimeras; format: cell-based; settings: immobilized chimera
T1 construct: expressed in transfected cells; host or cells: CHO cells
Method: (§1) In replicate assays, soluble ICAM-1, ICAM-R, or VCAM-1 IgG1 chimeric fusion proteins were immobilized on plastic and the ability of αd/CD18 or LFA-1 transfected CHO cells (see co-owned, concurrently filed U.S. patent application Ser. No. 08/286,889 identified as attorney docket No. 32168) to bind the immobilized ligand was determined. Transfected cells were labeled internally with calcein, washed in binding buffer (RPMI with 1% BSA), and incubated in either buffer only (with or without 10 ng/ml PMA) or buffer with anti-CD18 at 10 μg/ml. Transfected cells were added to 96-well Immulon 4 microtiter plates previously coated with soluble ICAM-1/Ig, ICAM-R/Ig or VCAM-1/Ig chimera, or bovine serum albumin (BSA) as a negative control. Wells were blocked with 1% BSA in PBS prior to addition of labeled cells. After washing the plates by immersion in PBS with 0.1% BSA for 20 minutes, total fluorescence remaining in each well was measured using a Cytofluor 2300 (Millipore, Milford, Mass.).

[2] = target: T1, αd/CD18 transfected CHO cells; assay: Flow cytometry binding of soluble chimeras; settings: chimera 5 μg/ml
Method: Binding of αd/CD18-transfected cells to soluble ICAM-1/IgG, ICAM-R/IgG, or VCAM-1/IgG chimeras was determined by flow cytometry. Approximately one million αd/CD18-transfected CHO cells (grown in spinner flasks for higher expression) per measurement were suspended in 100 μl binding buffer (RPMI and 1% BSA) with or without 10 μg/ml anti-CD18 antibody. After a 20 minute incubation at room temperature, the cells were washed in binding buffer and soluble ICAM-1/IgG or ICAM-R/IgG chimera was added to a final concentration of 5 μg/ml. Binding was allowed to proceed for 30 minute at 37° C., after which the cells were washed three times and resuspended in 100 μl binding buffer containing FITC-conjugated sheep anti-human IgG1 at a 1:100 dilution. After a 30 minute incubation, samples were washed three times and suspended in 200 μl binding buffer for analysis with a Becton Dickinson FACScan.

T cells [3] = assay: T-cell proliferation in response to CD3 mAb with recombinant ICAM-R; format: cell-based, human; settings: in comparison to the HSA control
Method: T cell costimulation by recombinant ICAM-R and CD3 antibody in the presence of monoclonal antibodies which block ICAM-R adhesion to VLA-4 was measured (Example 21F). The monoclonal antibodies tested were specific for domain 3 of ICAM-R or the α4 subunit of VLA-4.
Both variants were tested for effects on T-cell proliferation in response to CD3 mAb. […] Similar levels of costimulation were induced by the LFA-1 binding D231H-Ig or wild-type ICAM-R/Ig chimera which binds both LFA-1 and VLA-4.

T cells [4] = assay: IL-2 production in response to anti-CD3 and ICAM-R proteins; format: cell-based, human; settings: in comparison to the HSA control
VLA-4 = VLA-4 (Homo sapiens, UniProt P05556+P13612); assay: Integrin binding of ICAM-R/IgG variants
LFA-1 = LFA-1 (Homo sapiens, UniProt P05107+P20701); assay: Integrin binding of ICAM-R/IgG variants
Sequence of LFA-1 (P20701 26-1170): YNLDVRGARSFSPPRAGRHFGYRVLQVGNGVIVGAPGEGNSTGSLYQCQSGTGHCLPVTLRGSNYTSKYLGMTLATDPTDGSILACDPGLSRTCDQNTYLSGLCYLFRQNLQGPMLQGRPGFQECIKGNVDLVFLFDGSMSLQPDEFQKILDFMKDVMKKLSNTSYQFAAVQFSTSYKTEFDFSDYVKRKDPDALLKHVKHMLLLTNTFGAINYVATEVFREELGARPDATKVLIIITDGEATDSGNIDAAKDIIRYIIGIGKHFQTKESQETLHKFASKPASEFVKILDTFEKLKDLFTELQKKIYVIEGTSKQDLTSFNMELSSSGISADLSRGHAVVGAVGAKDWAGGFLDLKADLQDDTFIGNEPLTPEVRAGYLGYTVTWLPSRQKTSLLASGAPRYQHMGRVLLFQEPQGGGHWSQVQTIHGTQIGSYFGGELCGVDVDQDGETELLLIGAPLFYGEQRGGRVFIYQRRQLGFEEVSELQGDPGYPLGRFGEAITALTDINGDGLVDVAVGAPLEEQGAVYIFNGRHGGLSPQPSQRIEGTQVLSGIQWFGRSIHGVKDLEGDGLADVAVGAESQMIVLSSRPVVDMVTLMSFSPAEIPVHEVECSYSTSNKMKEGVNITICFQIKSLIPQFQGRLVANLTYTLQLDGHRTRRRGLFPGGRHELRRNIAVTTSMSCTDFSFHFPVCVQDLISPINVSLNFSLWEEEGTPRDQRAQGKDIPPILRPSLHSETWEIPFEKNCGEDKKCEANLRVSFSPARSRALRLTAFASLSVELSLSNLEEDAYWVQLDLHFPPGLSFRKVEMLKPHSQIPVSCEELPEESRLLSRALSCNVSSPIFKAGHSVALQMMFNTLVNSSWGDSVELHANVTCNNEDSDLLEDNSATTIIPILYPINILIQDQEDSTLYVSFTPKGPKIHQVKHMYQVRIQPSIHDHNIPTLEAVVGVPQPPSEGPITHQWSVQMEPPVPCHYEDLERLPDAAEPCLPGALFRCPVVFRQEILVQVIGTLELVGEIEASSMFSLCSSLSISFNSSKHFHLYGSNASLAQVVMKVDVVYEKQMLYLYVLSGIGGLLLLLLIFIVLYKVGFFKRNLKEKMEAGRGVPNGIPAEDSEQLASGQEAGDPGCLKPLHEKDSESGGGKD
Sequence of LFA-1 (P05107 23-769): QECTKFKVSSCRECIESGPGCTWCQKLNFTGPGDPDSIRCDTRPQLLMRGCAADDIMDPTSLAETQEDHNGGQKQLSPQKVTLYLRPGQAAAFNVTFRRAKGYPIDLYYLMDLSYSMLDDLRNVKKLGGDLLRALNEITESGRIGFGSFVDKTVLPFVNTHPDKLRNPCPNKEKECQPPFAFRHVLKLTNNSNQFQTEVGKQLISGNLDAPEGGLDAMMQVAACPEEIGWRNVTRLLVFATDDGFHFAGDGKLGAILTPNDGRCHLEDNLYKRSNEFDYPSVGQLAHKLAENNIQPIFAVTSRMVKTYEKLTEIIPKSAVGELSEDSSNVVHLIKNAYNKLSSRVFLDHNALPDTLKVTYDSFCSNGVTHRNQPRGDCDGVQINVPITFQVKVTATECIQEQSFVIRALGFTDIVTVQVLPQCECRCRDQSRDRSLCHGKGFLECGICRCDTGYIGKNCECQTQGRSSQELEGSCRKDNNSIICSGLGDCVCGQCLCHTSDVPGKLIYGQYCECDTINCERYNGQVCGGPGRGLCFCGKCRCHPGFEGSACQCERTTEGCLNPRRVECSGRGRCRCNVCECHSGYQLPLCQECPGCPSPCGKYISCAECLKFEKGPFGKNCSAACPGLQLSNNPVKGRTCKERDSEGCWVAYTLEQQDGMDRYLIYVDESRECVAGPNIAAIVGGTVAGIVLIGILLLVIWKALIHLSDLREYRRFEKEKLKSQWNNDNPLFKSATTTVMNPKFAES

[5] = target: T2, LFA-1 transfected CHO cells (Homo sapiens, UniProt P05107+P20701); assay: Binding of transfected CHO cells to immobilized chimeras; format: cell-based; settings: only following pretreatment with PMA
T2 construct: expressed in transfected cells; host or cells: CHO cells
T2 sequence (P20701 26-1170): as the sequence (P20701 26-1170) above
T2 sequence (P05107 23-769): as the sequence (P05107 23-769) above
Method: as §1

ICAM-R = target: T3, ICAM-R (Homo sapiens, UniProt P32942); assay: Blocking of biotinylated murine ICR-8.1 binding
T3 construct: express the full length ICAM-1 and ICAM-R proteins, respectively; expressed in transfected cells; host or cells: COS cells, DEAE-dextran, plasmid pcDNA1AmpICAM-R
T3 sequence (P32942 30-547): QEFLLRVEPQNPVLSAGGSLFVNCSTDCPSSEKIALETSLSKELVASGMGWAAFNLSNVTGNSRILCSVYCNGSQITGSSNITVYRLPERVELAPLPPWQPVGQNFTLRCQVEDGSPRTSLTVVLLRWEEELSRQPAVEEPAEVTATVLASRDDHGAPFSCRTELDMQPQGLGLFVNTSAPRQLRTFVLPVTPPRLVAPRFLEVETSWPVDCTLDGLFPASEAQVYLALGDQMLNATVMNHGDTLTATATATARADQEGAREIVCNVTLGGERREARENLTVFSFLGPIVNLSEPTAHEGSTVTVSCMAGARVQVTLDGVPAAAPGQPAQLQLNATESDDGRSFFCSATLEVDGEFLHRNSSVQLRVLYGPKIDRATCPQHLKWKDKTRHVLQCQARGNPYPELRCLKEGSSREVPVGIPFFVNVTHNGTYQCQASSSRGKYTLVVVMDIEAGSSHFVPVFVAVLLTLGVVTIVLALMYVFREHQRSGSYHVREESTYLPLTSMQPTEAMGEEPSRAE
From the text: However, antibodies containing the humanized heavy chain with the Ile2 mutation show an approximate 2-fold improvement in binding over the aforementioned antibodies. In experiments in blocking the binding of biotinylated murine ICR-8.1 to ICAM-R, the miHu/VHI/HuVK and miHuVHI/MuVK antibodies compete about 2-fold less well than the murine antibody itself.

T1 sequence (Q13349 18-1161): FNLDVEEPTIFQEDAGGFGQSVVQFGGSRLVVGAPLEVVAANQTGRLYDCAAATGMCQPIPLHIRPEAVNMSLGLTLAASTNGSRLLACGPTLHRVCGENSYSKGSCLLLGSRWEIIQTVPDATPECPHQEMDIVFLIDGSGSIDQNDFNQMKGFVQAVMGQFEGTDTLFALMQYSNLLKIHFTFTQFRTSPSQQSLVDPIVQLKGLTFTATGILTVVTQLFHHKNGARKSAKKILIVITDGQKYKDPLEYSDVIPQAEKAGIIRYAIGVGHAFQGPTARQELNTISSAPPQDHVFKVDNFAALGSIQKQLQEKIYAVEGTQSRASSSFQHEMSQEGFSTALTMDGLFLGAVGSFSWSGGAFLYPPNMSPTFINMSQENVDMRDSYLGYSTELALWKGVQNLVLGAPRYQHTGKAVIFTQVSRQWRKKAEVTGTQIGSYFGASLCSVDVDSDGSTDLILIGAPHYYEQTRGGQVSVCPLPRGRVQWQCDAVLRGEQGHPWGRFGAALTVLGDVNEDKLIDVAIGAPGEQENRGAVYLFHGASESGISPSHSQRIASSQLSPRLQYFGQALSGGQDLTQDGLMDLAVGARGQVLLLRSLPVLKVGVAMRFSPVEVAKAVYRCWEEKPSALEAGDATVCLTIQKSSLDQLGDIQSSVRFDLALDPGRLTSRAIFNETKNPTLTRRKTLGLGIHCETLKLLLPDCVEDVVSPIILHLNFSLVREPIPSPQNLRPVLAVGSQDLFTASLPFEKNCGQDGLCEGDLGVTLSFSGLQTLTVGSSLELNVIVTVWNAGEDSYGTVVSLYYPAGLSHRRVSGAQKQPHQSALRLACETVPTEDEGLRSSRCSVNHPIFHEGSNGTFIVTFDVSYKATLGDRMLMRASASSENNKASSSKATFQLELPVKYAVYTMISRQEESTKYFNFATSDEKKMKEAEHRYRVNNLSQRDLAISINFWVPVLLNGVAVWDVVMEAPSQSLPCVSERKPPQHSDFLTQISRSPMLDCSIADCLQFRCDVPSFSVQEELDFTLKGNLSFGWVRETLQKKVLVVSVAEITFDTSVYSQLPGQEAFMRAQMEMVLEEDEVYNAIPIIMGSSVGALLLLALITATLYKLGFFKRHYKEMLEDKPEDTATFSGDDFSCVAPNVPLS
T1 sequence (P05107 23-769): as the sequence (P05107 23-769) above

Molecule	αd/CD18 transfectants binding soluble chimera [2]	VLA-4 binding (VLA-4)	LFA-1 binding (LFA-1)	T-cell proliferation in response to CD3 mAb (T cells [3])	IL-2 production in response to CD3 mAb (T cells [4])	also measured
VCAM-1/IgG: soluble VCAM-1 IgG1 chimeric fusion protein (protein, left off: a dimerising Fc or GST, soluble VCAM-1 IgG1 chimeric fusion protein) FKIETTPESRYLAQIGDSVSLTCSTTGCESPFFSWRTQIDSPLNGKVTNEGTTSTLTMNPVSFGNEHSYLCTATCESRKLEKGIQVEIYSFPKDPEIHLSGPLEAGKPITVKCSVADVYPFDRLEIDLLKGDHLMKSQEFLEDADRKSLETKSLEVTFTPVIEDIGKVLVCRAKLHIDEMDSVPTVRQAVKELQVYISPKNTVISVNPSTKLQEGGSVTMTCSSEGLPAPEIFWSKKLDNGNLQHLSGNATLTLIAMRMEDSGIYVCEGVNLIGKNRKEVELIVQEKPFTVEISPGPRIAAQIGDSVMLTCSVMGCESPSFSWRTQIDSPLSGKVRSEGTNSTLTLSPVSFENEHSYLCTVTCGHKKLEKGIQVELYSFPRDPEIEMSGGLVNGSSVTVSCKVPSVYPLDRLEIELLKGETILENIEFLEDTDMKSLENKSLEMTFIPTIEDTGKALVCQAKLHIDDMEFEPKQRQSTQTLYVNVAPRDTTVLVSPSSILEEGSSVNMTCLSQGFPAPKILWSRQLPNGELQPLSENATLTLISTKMEDSGVYLCEGINQAGRSRKEVELIIQVTPKDIKLTAFPSESVKEGDTVIISCTCGNVPETWIILKKKAETGDTVLKSIDGAYTIRKAQLKDAGVYECESKNKVGSQLRSLTLDVQGRENNKDYFSPE	no binding	–	–	–	–	increase in binding of αd/CD18 co-transfectants over BSA coated wells [1]: No detectable binding
E37T-Ig: ICAM-R/IgG variant which binds VLA-4 but not LFA-1 (protein, left off: a dimerising Fc or GST) QEFLLRVEPQNPVLSAGGSLFVNCSTDCPSSEKIALASSLSKELVASGMGWAAFNLSNVTGNSRILCSVYCNGSQITGSSNITVYGLPERVELAPLPPWQPVGQNFTLRCQVEGGSPRTSLTVVLLRWEEELSRQPAVEEPAEVTATVLASRDDHGAPFSCRTELDMQPQGLGLFVNTSAPRQLRTFVLPVTPPRLVAPRFLEVETSWPVDCTLDGLFPASEAQVYLALGDQMLNATVMNHGDTLTATATATARADQEGAREIVCNVTLGGERREARENLTVFSFLGPIVNLSEPTAHEGSTVTVSCMAGARVQVTLDGVPAAAPGQTAQLQLNATESDDGRSFFCSATLEVDGEFLHRNSSVQLRVLYGPKIDRATCPQHLKWKDKTRHVLQCQARGNPYPELRCLKEGSSREVPVGIPFFVNVTHNGTYQCQASSSRGKYTLVVVMDIEAFSSH	–	binds VLA-4	not LFA-1	markedly inhibited T-cell proliferation	inhibited IL-2 production	–
D231H-Ig: ICAM-R/IgG variant with reduced VLA-4 binding, full LFA-1 binding (protein, left off: a dimerising Fc or GST) QEFLLRVEPQNPVLSAGGSLFVNCSTDCPSSEKIALETSLSKELVASGMGWAAFNLSNVTGNSRILCSVYCNGSQITGSSNITVYGLPERVELAPLPPWQPVGQNFTLRCQVEGGSPRTSLTVVLLRWEEELSRQPAVEEPAEVTATVLASRDDHGAPFSCRTELDMQPQGLGLFVNTSAPRQLRTFVLPVTPPRLVAPRFLEVETSWPVDCTLDGLFPASEAQVYLALGHQMLNATVMNHGDTLTATATATARADQEGAREIVCNVTLGGERREARENLTVFSFLGPIVNLSEPTAHEGSTVTVSCMAGARVQVTLDGVPAAAPGQTAQLQLNATESDDGRSFFCSATLEVDGEFLHRNSSVQLRVLYGPKIDRATCPQHLKWKDKTRHVLQCQARGNPYPELRCLKEGSSREVPVGIPFFVNVTHNGTYQCQASSSRGKYTLVVVMDIEAFSSH	–	reduced VLA-4 binding capacity	retaining full LFA-1 binding capacity	enhanced CD3 mAb driven T-cell proliferation	to a lesser extent	–
ICAM-1/IgG: soluble ICAM-1 IgG1 chimeric fusion protein (protein, left off: a dimerising Fc or GST, soluble ICAM-1 IgG1 chimeric fusion protein) QTSVSPSKVILPRGGSVLVTCSTSCDQPKLLGIETPLPKKELLLPGNNRKVYELSNVQEDSQPMCYSNCPDGQSTAKTFLTVYWTPERVELAPLPSWQPVGKNLTLRCQVEGGAPRANLTVVLLRGEKELKREPAVGEPAEVTTTVLVRRDHHGANFSCRTELDLRPQGLELFENTSAPYQLQTFVLPATPPQLVSPRVLEVDTQGTVVCSLDGLFPVSEAQVHLALGDQRLNPTVTYGNDSFSAKASVSVTAEDEGTQRLTCAVILGNQSQETLQTVTIYSFPAPNVILTKPEVSEGTEVTVKCEAHPRAKVTLNGVPAQPLGPRAQLLLKATPEDNGRSFSCSATLEVAGQLIHKNQTRELRVLYGPRLDERDCPGNWTWPENSQQTPMCQAWGNPLPELKCLKDGTFPLPIGESVTVTRDLEGTYLCRARSTQGEVTRKVTVNVLSPRYE	no binding	–	–	–	–	increase in binding of LFA-1 transfected cells [5]: 2-3 fold
miHu/VHI/HuVK: ICR-8.1 miHuVHI (Val2 to Ile2) heavy chain with humanized VK (antibody, V domains shown) VH: QIQLVQSGAEVKKPGASVKVSCKASGYTFTDCIILWVRQAPGQGLEWMGKINPYFGTTTYAQKFQGRVTITADTSTSTAYMELSSLRSEDTAVYYCARKEAYPDAMDYWGQGTLVTVSS VL: DIVMTQSPLSLPVTPGEPASISCRSSQSLVHSNGDTYLHWYLQKPGQSPQLLIYKVSNRFSGVPDRFSGSGSGTDFTLKISRVEAEDVGVYYCSQSTHVPYTFGQGTKVEIK	–	–	–	–	–	compete less well than murine ICR-8.1 in blocking binding of biotinylated murine ICR-8.1 (ICAM-R): about 2 fold
